Measurements published in PMC6219724.

Tests used:
[1] = molecular target: biotinylated Taxol-stabilized microtubules grown from bovine tubulin (bovine) (UniProt Q6B856); assay: single-molecule TIRF microscopy; biotinylated Taxol-stabilized microtubules tethered to the coverslip; 1.5 nM 549SNAP-tagged KKT4 in BRB80, 1 mg/ml κ-casein, 1 mM DTT, 10 µM Taxol; residence time, lattice diffusion and brightness of single particles
[2] = molecular target: dynamic microtubules grown from coverslip-anchored GMPCPP-stabilized seeds with purified bovine brain tubulin (bovine) (UniProt Q6B856); assay: laser trap bead assay; protein held on streptavidin beads by biotinylated His5 antibody (60, 600, 6,500 nM); dynamic microtubules from coverslip-anchored seeds, 6 µM bovine brain tubulin; preload 0.8 ± 0.3 pN (3.3 ± 0.5 pN for Ndc80 complex), friction coefficient on the lattice, then force ramp of 0.25 pN/s until rupture of the tip attachment

**Q.** What does the source list for “full-length charge-reversal mutant KKT4 (R123E, K132E, R154E), 549SNAP-tagged (natural protein)”?
**A.** fold change of the average residence time against wild-type KKT4 [1]: 2 fold shorter; fold change of the lattice diffusion against wild-type KKT4 [1]: 2 fold faster

**Q.** Which average rupture force of tip attachments [2] does the source give for “charge-reversal mutant KKT4 115-343 (R123E, K132E, R154E) (domain or fragment)” here?
**A.** The average rupture force of tip attachments was 1.6 pN.

**Q.** For 6HIS-KKT4 115-343 (domain or fragment), which average rupture force of tip attachments [2] is on record?
**A.** Its average rupture force of tip attachments is 2.1 pN.

**Q.** Which average residence time [1] does the source give for “full-length KKT4 fused with an N-terminal SNAP-6HIS-3FLAG tag, labeled with 549SNAP dye (natural protein)” here?
**A.** The average residence time was 5.4 s.

**Q.** What about the diffusion coefficient on the microtubule lattice [1] of the same substance?
**A.** Its diffusion coefficient on the microtubule lattice is 0.0071 µm^2/s.
